Data on five molecules can be found in patent US11130793B2, “GLP-1/GLP-2 dual agonists” (Zealand Pharma A/S, priority 2016, dated 2021).

Square brackets hold non-standard residues; d marks the D form. Aib = CC(C)(N)C(=O)O

Test [1] addresses T1, human GLP-2 receptor (hGLP2-R) (human, UniProt O95838).
T1 sequence: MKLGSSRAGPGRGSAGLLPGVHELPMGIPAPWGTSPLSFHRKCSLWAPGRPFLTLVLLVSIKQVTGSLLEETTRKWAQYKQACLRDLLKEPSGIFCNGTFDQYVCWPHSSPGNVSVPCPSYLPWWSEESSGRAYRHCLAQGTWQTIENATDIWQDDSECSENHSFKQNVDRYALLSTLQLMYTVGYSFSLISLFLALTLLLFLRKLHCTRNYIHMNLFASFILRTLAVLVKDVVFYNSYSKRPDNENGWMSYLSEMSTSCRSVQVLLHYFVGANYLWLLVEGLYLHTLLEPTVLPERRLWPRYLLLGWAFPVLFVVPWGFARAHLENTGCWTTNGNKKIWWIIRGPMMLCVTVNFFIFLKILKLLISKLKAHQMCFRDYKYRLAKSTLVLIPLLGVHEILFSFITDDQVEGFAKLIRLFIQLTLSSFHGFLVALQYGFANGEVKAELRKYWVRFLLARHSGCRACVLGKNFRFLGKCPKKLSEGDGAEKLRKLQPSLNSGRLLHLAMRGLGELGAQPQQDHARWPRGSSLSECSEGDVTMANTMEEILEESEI
The test is described as follows: cell-based or functional assay.

The target in test [2] is human glucagon-like peptide 1 receptor (GLP-1R) (human, UniProt P43220). The test is described as follows: cell-based or functional assay.

B1: Compound 28 (peptide)
peptide: H-H[Aib]EGSFTSELATILDEQAARDFIAWLYAHKITD-OH
SMILES: CC[C@H](C)[C@H](NC(=O)[C@H](Cc1ccccc1)NC(=O)[C@H](CC(=O)O)NC(=O)[C@H](CCCNC(=N)N)NC(=O)[C@H](C)NC(=O)[C@H](C)NC(=O)[C@H](CCC(N)=O)NC(=O)[C@H](CCC(=O)O)NC(=O)[C@H](CC(=O)O)NC(=O)[C@H](CC(C)C)NC(=O)[C@@H](NC(=O)[C@@H](NC(=O)[C@H](C)NC(=O)[C@H](CC(C)C)NC(=O)[C@H](CCC(=O)O)NC(=O)[C@H](CO)NC(=O)[C@@H](NC(=O)[C@H](Cc1ccccc1)NC(=O)[C@H](CO)NC(=O)CNC(=O)[C@H](CCC(=O)O)NC(=O)C(C)(C)NC(=O)[C@@H](N)Cc1c[nH]cn1)[C@@H](C)O)[C@@H](C)O)[C@@H](C)CC)C(=O)N[C@@H](C)C(=O)N[C@@H](Cc1c[nH]c2ccccc12)C(=O)N[C@@H](CC(C)C)C(=O)N[C@@H](Cc1ccc(O)cc1)C(=O)N[C@@H](C)C(=O)N[C@@H](Cc1c[nH]cn1)C(=O)N[C@@H](CCCCN)C(=O)N[C@H](C(=O)N[C@H](C(=O)N[C@@H](CC(=O)O)C(=O)O)[C@@H](C)O)[C@@H](C)CC
B1: the “EC50 GLP-2 (nM); cAMP AlphaScreen” value in test [1] stood at 0.024 nM. The “EC50 GLP-1 (nM); cAMP AlphaScreen” value in test [2] is 0.11 nM.

B2: Compound 26 (peptide)
peptide: H-H[Aib]EGTFTSELATILDEQAARDFIAWLQAQKITD-OH
SMILES: CC[C@H](C)[C@H](NC(=O)[C@H](Cc1ccccc1)NC(=O)[C@H](CC(=O)O)NC(=O)[C@H](CCCNC(=N)N)NC(=O)[C@H](C)NC(=O)[C@H](C)NC(=O)[C@H](CCC(N)=O)NC(=O)[C@H](CCC(=O)O)NC(=O)[C@H](CC(=O)O)NC(=O)[C@H](CC(C)C)NC(=O)[C@@H](NC(=O)[C@@H](NC(=O)[C@H](C)NC(=O)[C@H](CC(C)C)NC(=O)[C@H](CCC(=O)O)NC(=O)[C@H](CO)NC(=O)[C@@H](NC(=O)[C@H](Cc1ccccc1)NC(=O)[C@@H](NC(=O)CNC(=O)[C@H](CCC(=O)O)NC(=O)C(C)(C)NC(=O)[C@@H](N)Cc1c[nH]cn1)[C@@H](C)O)[C@@H](C)O)[C@@H](C)O)[C@@H](C)CC)C(=O)N[C@@H](C)C(=O)N[C@@H](Cc1c[nH]c2ccccc12)C(=O)N[C@@H](CC(C)C)C(=O)N[C@@H](CCC(N)=O)C(=O)N[C@@H](C)C(=O)N[C@@H](CCC(N)=O)C(=O)N[C@@H](CCCCN)C(=O)N[C@H](C(=O)N[C@H](C(=O)N[C@@H](CC(=O)O)C(=O)O)[C@@H](C)O)[C@@H](C)CC
Take B2: the “EC50 GLP-2 (nM); cAMP AlphaScreen” value in test [1] is 0.19 nM. For the same molecule, in test [2], the “EC50 GLP-1 (nM); cAMP AlphaScreen” value is 0.013 nM.

B3: Compound 27 (peptide)
peptide: H-H[Aib]EGTFTSELSTILDEQAARDFIAWLHAQKITD-OH
modifications: not fully specified; printed as Hy-H[Aib]EGTFTSELSTILDEQAARDFIAWLHAQKITD-OH
As to B3, the “EC50 GLP-2 (nM); cAMP AlphaScreen” value in test [1] amounted to 0.37 nM. Further, the “EC50 GLP-1 (nM); cAMP AlphaScreen” value in test [2] amounted to 0.12 nM.

B4: Compound 29 (peptide)
peptide: H-H[Aib]EGTFTDELATILDEQAARDFIAWLQAQKITD-OH
modifications: not fully specified; printed as Hy-H[Aib]EGTFTDELATILDEQAARDFIAWLQAQKITD-OH
Consider B4, for which the “EC50 GLP-2 (nM); cAMP AlphaScreen” value in test [1] was 0.11 nM. Further, the “EC50 GLP-1 (nM); cAMP AlphaScreen” value in test [2] was found to be 0.044 nM.

B5: Compound 30 (peptide)
peptide: H-H[Aib]EGSFTSELATILDEQAARDFIAWLYRHKITD-OH
modifications: not fully specified; printed as Hy-H[Aib]EGSFTSELATILDEQAARDFIAWLYRHKITD-OH
Take B5: the “EC50 GLP-2 (nM); cAMP AlphaScreen” value in test [1] turned out to be 0.034 nM. The “EC50 GLP-1 (nM); cAMP AlphaScreen” value in test [2] came out at 0.1 nM.
